The source of these data is patent US20140363865A1, “SUPPLEMENTATION OF FATTY ACIDS FOR IMPROVING ALCOHOL PRODUCTIVITY” (BUTAMAX ADVANCED BIOFUELS LLC, priority 2010, published 2014).

The test system of assay [1] is S. cerevisiae culture. As to conditions: cerulenin added to the culture; cited from earlier work.
Assay [2] in a line: Lipase screening for treatment of ground whole corn kernels prior to liquefaction (Example 25). Type of assay: biochemical. As to conditions: 55° C., pH 5.8. The procedure:
Seven reaction mixtures containing tap water (67.9 g) and ground whole corn kernels (35.1 g wet wt., ground with 1.0 mm screen using a hammer mill) at pH 5.8 were stirred at 55° C. in stoppered flasks. A 3-mL sample (t=0 h) was removed from each flask and the sample immediately frozen on dry ice, then ca. 0.5 mL of 10 mM sodium phosphate buffer (pH 7.0) containing 1 mg total soluble protein (10 ppm final concentration in reaction mixture) of one of the following lipases (Novozymes) were added to one of each flask: Lipolase® 100 L, Lipex® 100L, Lipoclean® 2000T, Lipozyme® CALB L, Novozyme® CALA L, and Palatase 20000L; no lipase was added to the seventh flask. The resulting mixtures were stirred at 55° C. in stoppered flasks, and 3-mL samples were withdrawn from each reaction mixture at 1 h, 2 h, 4 h and 6 h and immediately frozen in dry ice until analyzed for wt % lipid (derivatized as fatty acid methyl esters, FAME) and for wt % free fatty acid (FFA, derivatized as fatty acid methyl esters, FAME) according to the method described by Reference 1, and the percent free fatty acid content was calculated relative to the total combined concentrations of lipid and free fatty acid was determined for each sample.

A short description of assay [3]: Heat inactivation of lipase in lipase-treated liquefied corn mash mixed with oleyl alcohol (Example 22). Type of assay: biochemical. As to the method:
Tap water (918.4 g) was added to a jacketed 2-L resin kettle, then 474.6 g wet weight (417.6 g dry weight) of ground whole corn kernels (1.0 mm screen on hammer mill) was added with stirring. The mixture was heated to 55° C. with stirring at 300 rpm, and the pH adjusted to 5.8 with 2 N sulfuric acid. To the mixture was added 14.0 g of an aqueous solution containing 0.672 g of Spezyme®-FRED L (Genencor®, Palo Alto, Calif.), and the temperature of the mixture increased to 85° C. with stirring at 600 rpm and pH 5.8. After 120 minutes at 85° C., the mixture was cooled to 50° C. and 45.0 mL aliquots of the resulting liquefied corn mash were transferred to 50-mL polypropylene centrifuge tubes and stored frozen at −80° C.
In a first reaction, 50 g of liquefied corn mash prepared as described above was mixed with 10 ppm Lipolase® 100 L (Novozymes) for 6 h at 55° C. and with no inactivation of lipase at 85° C. for 1 h, the mixture was cooled to 30° C. In a second reaction, 50 g of liquefied corn mash was mixed with 10 ppm Lipolase® for 6 h at 55° C., then heated to 85° C. for 1 h (lipase inactivation), then cooled to 30° C. In a third reaction, 50 g of liquefied corn mash without added lipase was mixed for 6 h at 55° C., and with no heating at 85° C. for 1 h, the mixture was cooled to 30° C., 38 g of oleyl alcohol was added, and the resulting mixture stirred for 73 h at 30° C. In a fourth reaction, 50 g of liquefied corn mash without added lipase was mixed for 6 h at 55° C., then heated to 85° C. for 1 h, then cooled to 30° C. Each of the four reaction mixtures was sampled at 6 h, then 38 g of oleyl alcohol added, and the resulting mixtures stirred at 30° C. and sampled at 25 h and 73 h. Samples (both liquefied mash and oleyl alcohol (OA)) were analyzed for wt % lipid (derivatized as fatty acid methyl esters, FAME) and for wt % free fatty acid (FFA, derivatized as fatty acid methyl esters, FAME) according to the method described by Reference 1.

Assay [4] is described as follows: Lipase treatment of ground whole corn kernels prior to liquefaction, then mixing with oleyl alcohol (Example 24). Type of assay: biochemical. As to the method:
Tap water (1377.6 g) was added into each of two jacketed 2-L resin kettles, then 711.9 g wet weight (625.8 g dry weight) of ground whole corn kernels (1.0 mm screen on hammer mill) was added to each kettle with stirring. Each mixture was heated to 55° C. with stirring at 300 rpm, and the pH adjusted to 5.8 with 2 N sulfuric acid. To each mixture was added 21.0 g of an aqueous solution containing 1.008 g of Spezyme®-FRED L (Genencor®, Palo Alto, Calif.). To one mixture was then added 10.5 mL of aqueous solution of Lipolase® 100L Solution (21 mg total soluble protein, 10 ppm lipase final concentration) and to the second mixture was added 1.05 mL of aqueous solution of Lipolase® 100L Solution (2.1 mg total soluble protein, 1.0 ppm lipase final concentration). Samples were withdrawn from each reaction mixture at 1 h, 2 h, 4 h and 6 h at 55° C., then the temperature of the mixture was increased to 85° C. with stirring at 600 rpm and pH 5.8, and a sample was taken when the mixture first reached 85° C. After 120 minutes at 85° C., a sample was taken and the mixtures were cooled to 50° C. and final samples of the resulting liquefied corn mash were transferred to 50-mL polypropylene centrifuge tubes; all samples were stored frozen at −80° C.
In two separate reactions, a 50 g sample of the 10 ppm lipase-treated liquefied corn mash or a 55 g sample of the 1.0 ppm lipase-treated liquefied corn mash prepared as described above was mixed with oleyl alcohol (OA) (38 g) at 30° C. for 20 h, then the liquefied mash and OA in each reaction mixture were separated by centrifugation and each phase analyzed for wt % lipid (derivatized as fatty acid methyl esters, FAME) and for wt % free fatty acid (FFA, derivatized as fatty acid methyl esters, FAME) according to the method described by Reference 1. The % FFA in the OA phase of the liquefied mash/OA mixture prepared using heat inactivation of 10 ppm lipase during liquefaction was 98% at 20 h, compared to only 62% FFA in the OA phase of the liquefied mash/OA mixture prepared using heat inactivation of 1.0 ppm lipase during liquefaction.

Setting [5] is: 0 h (sample before lipase addition).

As to `C/C=C/C/C=C/CCC(=O)[C@H]1O[C@H]1C(N)=O` [Cerulenin, cerulenin], in assay [1], the “growth of S. cerevisiae culture” value is “inhibition of the growth”.

B1: Palatase ® 20000 L: commercial lipase preparation available from Novozymes (protein, UniProt P19515 95-363, looked up)
Lipase: SIDGGIRAATSQEINELTYYTTLSANSYCRTVIPGATWDCIHCDATEDLKIIKTWSTLIYDTNAMVARGDSEKTIYIVFRGSSSIRNWIADLTFVPVSYPPVSGTKVHKGFLDSYGEVQNELVATVLDQFKQYPSYKVAVTGHSLGGATALLCALDLYQREEGLSSSNLFLYTQGQPRVGDPAFANYVVSTGIPYRRTVNERDIVPHLPPAAFGFLHAGEEYWITDNSPETVQVCTSDLETSDCSNSIVPFTSVLDHLSYFGINTGLCT
On to B1, for which the “% FFA” value in assay [2] (setting [5]) was 37%; in assay [2] (1 h, 10 ppm lipase) it was 49%; in assay [2] (2 h, 10 ppm lipase), 59%; in assay [2] (4 h, 10 ppm lipase) it was 62%; in assay [2] (6 h, 10 ppm lipase), 66%.

B2: Lipolase ® 100 L: commercial lipase preparation available from Novozymes (protein, UniProt O59952 23-291, looked up)
Lipase: EVSQDLFNQFNLFAQYSAAAYCGKNNDAPAGTNITCTGNACPEVEKADATFLYSFEDSGVGDVTGFLALDNTNKLIVLSFRGSRSIENWIGNLNFDLKEINDICSGCRGHDGFTSSWRSVADTLRQKVEDAVREHPDYRVVFTGHSLGGALATVAGADLRGNGYDIDVFSYGAPRVGNRAFAEFLTVQTGGTLYRITHTNDIVPRLPPREFGYSHSSPEYWIKSGTLVPVTRNDIVKIEGIDATGGNNQPNIPDIPAHLWYFGLIGTCL
For the molecule B2, the “% FFA” value in assay [3] (10 ppm active lipase, no 85° C. heat treatment, 6 h, liq. mash) came to 89%; in assay [3] (10 ppm active lipase, no 85° C. heat treatment, 25 h, OA) it was 40%; in assay [3] (10 ppm active lipase, no 85° C. heat treatment, 25 h, liq. mash), 20%; in assay [3] (10 ppm active lipase, no 85° C. heat treatment, 73 h, OA), 21%; in assay [3] (10 ppm active lipase, no 85° C. heat treatment, 73 h, liq. mash), 18%; in assay [3] (10 ppm inactive lipase, 85° C. heat treatment, 6 h, liq. mash), 89%. In addition, the “% FFA” value is given as 99% in assay [3] (10 ppm inactive lipase, 85° C. heat treatment, 25 h, OA); 53% in assay [3] (10 ppm inactive lipase, 85° C. heat treatment, 25 h, liq. mash); 95% in assay [3] (10 ppm inactive lipase, 85° C. heat treatment, 73 h, OA); 62% in assay [3] (10 ppm inactive lipase, 85° C. heat treatment, 73 h, liq. mash); 54% in assay [4] (1.0 ppm lipase at 55° C., 1 h, pre-liquefaction); 51% in assay [4] (1.0 ppm lipase at 55° C., 2 h, pre-liquefaction). The “% FFA” value in assay [4] (1.0 ppm lipase at 55° C., 4 h, pre-liquefaction) came to 58%; in assay [4] (1.0 ppm lipase at 55° C., 6 h, pre-liquefaction) it was 57%; in assay [4] (1.0 ppm lipase, 0 h, 85° C., liq. mash), 49%; in assay [4] (1.0 ppm lipase, 2 h, 85° C., liq. mash), 50%; in assay [4] (1.0 ppm lipase, mix with OA, 20 h, 30° C., OA), 62%; in assay [4] (1.0 ppm lipase, mix with OA, 20 h, 30° C., liq. mash), 20%. Also, the “% FFA” value in assay [4] (10 ppm lipase at 55° C., 1 h, pre-liquefaction) is recorded as 74%; in assay [4] (10 ppm lipase at 55° C., 2 h, pre-liquefaction) it was 77%; in assay [4] (10 ppm lipase at 55° C., 4 h, pre-liquefaction), 82%; in assay [4] (10 ppm lipase at 55° C., 6 h, pre-liquefaction) it was 87%; in assay [4] (10 ppm lipase, 0 h, 85° C., liq. mash), 86%; in assay [4] (10 ppm lipase, 2 h, 85° C., liq. mash), 85%. Moreover, the “% FFA” value was 98% in assay [4] (10 ppm lipase, mix with OA, 20 h, 30° C., OA); 48% in assay [4] (10 ppm lipase, mix with OA, 20 h, 30° C., liq. mash); 33% in assay [2] (setting [5]); 56% in assay [2] (1 h, 10 ppm lipase); 74% in assay [2] (2 h, 10 ppm lipase); 76% in assay [2] (4 h, 10 ppm lipase). Besides, the “% FFA” value in assay [2] (6 h, 10 ppm lipase) is 79%.
